# Values quoted from earlier work as cited in paper PMC11612555, “Impact of camel milk lactoferrin peptides against breast cancer cells: in silico and in vitro study” (Frontiers in Pharmacology, 2024).
# How the values were obtained:
# T-47D = tested on: T-47D; set-up: method as in Zhang et al., 2014; settings: ref Zhang et al., 2014
# MCF-7 = tested on: MCF-7; set-up: method as in Zhang et al., 2014; settings: ref Zhang et al., 2014
# Hs578T = tested on: Hs578T; set-up: method as in Zhang et al., 2014; settings: ref Zhang et al., 2014
# MDA-MB-231 = tested on: MDA-MB-231; set-up: method as in Zhang et al., 2014; settings: ref Zhang et al., 2014
# MCF-10-2A = tested on: MCF-10-2A; set-up: method as in Zhang et al., 2014; settings: normal breast cell line MCF-10-2A; ref Zhang et al., 2014
# MDAmb231 cells = tested on: MDAmb231 cells; set-up: method as in Rascón-Cruz et al., 2021b; settings: against MDAmb231; ref Rascón-Cruz et al., 2021b
# HeLa cells = tested on: HeLa cells; set-up: method as in Rascón-Cruz et al., 2021b; settings: against HeLa; ref Rascón-Cruz et al., 2021b
Molecule,proliferation (T-47D),proliferation (MCF-7),proliferation (Hs578T),proliferation (MDA-MB-231),proliferation (MCF-10-2A),selective index (MDAmb231 cells),selective index (HeLa cells)
"bovine lactoferrin (protein, UniProt P24627 20-708, looked up, lactoferrin from bovine milk) Lactotransferrin: APRKNVRWCTISQPEWFKCRRWQWRMKKLGAPSITCVRRAFALECIRAIAEKKADAVTLDGGMVFEAGRDPYKLRPVAAEIYGTKESPQTHYYAVAVVKKGSNFQLDQLQGRKSCHTGLGRSAGWIIPMGILRPYLSWTESLEPLQGAVAKFFSASCVPCIDRQAYPNLCQLCKGEGENQCACSSREPYFGYSGAFKCLQDGAGDVAFVKETTVFENLPEKADRDQYELLCLNNSRAPVDAFKECHLAQVPSHAVVARSVDGKEDLIWKLLSKAQEKFGKNKSRSFQLFGSPPGQRDLLFKDSALGFLRIPSKVDSALYLGSRYLTTLKNLRETAEEVKARYTRVVWCAVGPEEQKKCQQWSQQSGQNVTCATASTTDDCIVLVLKGEADALNLDGGYIYTAGKCGLVPVLAENRKSSKHSSLDCVLRPTEGYLAVAVVKKANEGLTWNSLKDKKSCHTAVDRTAGWNIPMGLIVNQTGSCAFDEFFSQSCAPGADPKSRLCALCAGDDQGLDKCVPNSKEKYYGYTGAFRCLAEDVGDVAFVKNDTVWENTNGESTADWAKNLNREDFRLLCLDGTRKPVTEAQSCHLAVAPNHAVVSRSDRAAHVKQVLLHQQALFGKNGKNCPDKFCLFKSETKNLLFNDNTECLAKLGGRPTYEEYLGTEYVTAIANLKKCSTSPLLEACAFLTR",inhibited,inhibited,inhibited,inhibited,not,–,–
"lactoferrin (protein, UniProt P02788 20-710, looked up) Lactotransferrin: GRRRSVQWCAVSQPEATKCFQWQRNMRKVRGPPVSCIKRDSPIQCIQAIAENRADAVTLDGGFIYEAGLAPYKLRPVAAEVYGTERQPRTHYYAVAVVKKGGSFQLNELQGLKSCHTGLRRTAGWNVPIGTLRPFLNWTGPPEPIEAAVARFFSASCVPGADKGQFPNLCRLCAGTGENKCAFSSQEPYFSYSGAFKCLRDGAGDVAFIRESTVFEDLSDEAERDEYELLCPDNTRKPVDKFKDCHLARVPSHAVVARSVNGKEDAIWNLLRQAQEKFGKDKSPKFQLFGSPSGQKDLLFKDSAIGFSRVPPRIDSGLYLGSGYFTAIQNLRKSEEEVAARRARVVWCAVGEQELRKCNQWSGLSEGSVTCSSASTTEDCIALVLKGEADAMSLDGGYVYTAGKCGLVPVLAENYKSQQSSDPDPNCVDRPVEGYLAVAVVRRSDTSLTWNSVKGKKSCHTAVDRTAGWNIPMGLLFNQTGSCKFDEYFSQSCAPGSDPRSNLCALCIGDEQGENKCVPNSNERYYGYTGAFRCLAENAGDVAFVKDVTVLQNTDGNNNEAWAKDLKLADFALLCLDGKRKPVTEARSCHLAMAPNHAVVSRMDKVERLKQVLLHQQAKFGRNGSDCPDKFCLFQSETKNLLFNDNTECLARLHGKTTYEKYLGPQYVAGITNLKKCSTSPLLEACEFLRK",–,–,–,–,–,11.68,9.59
